Here are results for one molecule from paper PMC8734478 (Science (New York, N.Y.), 2021).

This test deals with human Hedgehog acyltransferase (HHAT) (human, UniProt Q5VTY9 1-493). The experiment in a line: cryo-EM structure.

Ends that are not written are not given here. * marks the point of attachment. Palmitoyl = CCCCCCCCCCCCCCCC(=O)*

Chain of human Hedgehog acyltransferase (HHAT) (Q5VTY9 whole entry): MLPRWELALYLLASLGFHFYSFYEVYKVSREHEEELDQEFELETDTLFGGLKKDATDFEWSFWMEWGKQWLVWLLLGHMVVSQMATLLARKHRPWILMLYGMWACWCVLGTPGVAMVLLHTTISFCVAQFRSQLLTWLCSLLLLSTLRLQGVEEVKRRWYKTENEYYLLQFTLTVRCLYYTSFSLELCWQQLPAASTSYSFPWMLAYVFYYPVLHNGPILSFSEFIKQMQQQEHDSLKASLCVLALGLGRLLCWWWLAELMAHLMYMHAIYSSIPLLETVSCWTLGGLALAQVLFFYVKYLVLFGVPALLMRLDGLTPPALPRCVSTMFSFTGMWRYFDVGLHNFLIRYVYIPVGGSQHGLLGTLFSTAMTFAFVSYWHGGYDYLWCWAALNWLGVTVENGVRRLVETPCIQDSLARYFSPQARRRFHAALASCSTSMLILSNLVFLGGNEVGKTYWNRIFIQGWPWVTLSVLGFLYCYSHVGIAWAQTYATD

As to Palmitoyl-CGPGRGFGKRRH (peptide, UniProt Q15465 24-35, looked up), the binding result was “binds”.
